Data published in paper PMC11306496.

Assays:
Assay in all cases: co-IP; total rat hippocampal lysates with primary antibody and Protein A/G agarose, 4°C; buffer pH 7.4, 0.05 mol/L HEPES, 0.15 mol/L NaCl, 0.5% NP-40, 1% Triton X-100; non-immune IgG as control; slices untreated or treated with PMA (0.5 umol/L, 10 min) and/or AIP (1 umol/L)
[1] = molecular target: Rab11 family-interacting protein 3 (rat (endogenous in hippocampus))
[2] = molecular target: small GTPase Rab11 (rat (endogenous in hippocampus)) (UniProt P62494)
[3] = molecular target: NMDA receptor subunit GluN1 (rat (endogenous in hippocampus)) (UniProt P35439)
[4] = molecular target: myosin Va (rat (endogenous in hippocampus)) (UniProt Q9QYF3)
myosin Va (rat (endogenous in hippocampus)), sequence (Q9QYF3 whole entry): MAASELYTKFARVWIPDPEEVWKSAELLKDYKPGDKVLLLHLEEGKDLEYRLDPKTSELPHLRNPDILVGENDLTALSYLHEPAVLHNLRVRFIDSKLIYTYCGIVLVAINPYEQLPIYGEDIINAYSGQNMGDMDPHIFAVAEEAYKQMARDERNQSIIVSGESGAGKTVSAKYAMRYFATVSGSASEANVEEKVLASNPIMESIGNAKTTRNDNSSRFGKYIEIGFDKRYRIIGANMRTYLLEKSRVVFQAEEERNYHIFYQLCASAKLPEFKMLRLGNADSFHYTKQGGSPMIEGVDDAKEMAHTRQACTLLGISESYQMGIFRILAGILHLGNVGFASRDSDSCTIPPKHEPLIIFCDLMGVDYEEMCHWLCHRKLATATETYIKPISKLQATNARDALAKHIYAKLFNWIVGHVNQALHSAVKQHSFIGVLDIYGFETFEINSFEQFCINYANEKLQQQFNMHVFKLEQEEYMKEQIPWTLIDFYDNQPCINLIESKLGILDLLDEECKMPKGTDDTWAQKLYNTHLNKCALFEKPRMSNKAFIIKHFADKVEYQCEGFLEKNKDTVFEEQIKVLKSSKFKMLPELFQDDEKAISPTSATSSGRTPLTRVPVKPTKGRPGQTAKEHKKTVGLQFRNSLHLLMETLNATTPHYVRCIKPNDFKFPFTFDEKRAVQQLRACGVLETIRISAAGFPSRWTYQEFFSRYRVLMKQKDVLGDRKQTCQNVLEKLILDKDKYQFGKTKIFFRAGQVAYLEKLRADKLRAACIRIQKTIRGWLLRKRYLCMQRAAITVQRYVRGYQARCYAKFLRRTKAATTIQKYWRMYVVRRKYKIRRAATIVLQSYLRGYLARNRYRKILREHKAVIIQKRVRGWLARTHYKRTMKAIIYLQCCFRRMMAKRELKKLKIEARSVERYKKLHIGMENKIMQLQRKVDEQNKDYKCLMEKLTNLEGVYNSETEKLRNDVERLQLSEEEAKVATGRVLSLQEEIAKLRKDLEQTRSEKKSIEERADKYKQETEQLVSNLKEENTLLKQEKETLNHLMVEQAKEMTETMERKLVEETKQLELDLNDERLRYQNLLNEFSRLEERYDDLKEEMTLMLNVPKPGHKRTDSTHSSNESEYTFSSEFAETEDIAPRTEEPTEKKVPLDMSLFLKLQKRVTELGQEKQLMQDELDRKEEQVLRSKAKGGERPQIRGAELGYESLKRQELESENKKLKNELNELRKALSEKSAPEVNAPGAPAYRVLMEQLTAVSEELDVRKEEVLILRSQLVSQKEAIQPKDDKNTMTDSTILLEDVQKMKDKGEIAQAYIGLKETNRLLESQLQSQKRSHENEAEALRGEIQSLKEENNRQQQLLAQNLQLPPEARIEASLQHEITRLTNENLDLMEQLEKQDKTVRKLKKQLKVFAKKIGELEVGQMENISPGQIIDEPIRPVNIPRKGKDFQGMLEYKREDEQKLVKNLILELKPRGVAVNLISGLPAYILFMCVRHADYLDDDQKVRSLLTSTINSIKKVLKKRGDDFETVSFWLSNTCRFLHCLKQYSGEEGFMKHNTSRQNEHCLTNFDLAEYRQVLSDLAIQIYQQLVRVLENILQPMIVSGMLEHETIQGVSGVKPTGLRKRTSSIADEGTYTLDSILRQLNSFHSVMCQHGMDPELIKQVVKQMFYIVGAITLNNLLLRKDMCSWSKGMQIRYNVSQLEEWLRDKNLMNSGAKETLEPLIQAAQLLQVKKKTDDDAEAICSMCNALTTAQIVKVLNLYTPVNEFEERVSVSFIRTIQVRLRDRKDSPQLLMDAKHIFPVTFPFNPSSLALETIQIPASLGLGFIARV

small GTPase Rab11, sequence (P62494 whole entry): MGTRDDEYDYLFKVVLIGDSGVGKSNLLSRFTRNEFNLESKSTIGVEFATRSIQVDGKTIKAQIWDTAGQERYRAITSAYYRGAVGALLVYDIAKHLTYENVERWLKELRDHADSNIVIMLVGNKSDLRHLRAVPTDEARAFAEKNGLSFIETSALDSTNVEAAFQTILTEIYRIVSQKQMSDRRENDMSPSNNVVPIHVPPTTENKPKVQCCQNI
small GTPase Rab11 (rat (endogenous in hippocampus)), sequence (P62494 whole entry): as above
NMDA receptor subunit GluN2A, sequence (Q00959 23-1464): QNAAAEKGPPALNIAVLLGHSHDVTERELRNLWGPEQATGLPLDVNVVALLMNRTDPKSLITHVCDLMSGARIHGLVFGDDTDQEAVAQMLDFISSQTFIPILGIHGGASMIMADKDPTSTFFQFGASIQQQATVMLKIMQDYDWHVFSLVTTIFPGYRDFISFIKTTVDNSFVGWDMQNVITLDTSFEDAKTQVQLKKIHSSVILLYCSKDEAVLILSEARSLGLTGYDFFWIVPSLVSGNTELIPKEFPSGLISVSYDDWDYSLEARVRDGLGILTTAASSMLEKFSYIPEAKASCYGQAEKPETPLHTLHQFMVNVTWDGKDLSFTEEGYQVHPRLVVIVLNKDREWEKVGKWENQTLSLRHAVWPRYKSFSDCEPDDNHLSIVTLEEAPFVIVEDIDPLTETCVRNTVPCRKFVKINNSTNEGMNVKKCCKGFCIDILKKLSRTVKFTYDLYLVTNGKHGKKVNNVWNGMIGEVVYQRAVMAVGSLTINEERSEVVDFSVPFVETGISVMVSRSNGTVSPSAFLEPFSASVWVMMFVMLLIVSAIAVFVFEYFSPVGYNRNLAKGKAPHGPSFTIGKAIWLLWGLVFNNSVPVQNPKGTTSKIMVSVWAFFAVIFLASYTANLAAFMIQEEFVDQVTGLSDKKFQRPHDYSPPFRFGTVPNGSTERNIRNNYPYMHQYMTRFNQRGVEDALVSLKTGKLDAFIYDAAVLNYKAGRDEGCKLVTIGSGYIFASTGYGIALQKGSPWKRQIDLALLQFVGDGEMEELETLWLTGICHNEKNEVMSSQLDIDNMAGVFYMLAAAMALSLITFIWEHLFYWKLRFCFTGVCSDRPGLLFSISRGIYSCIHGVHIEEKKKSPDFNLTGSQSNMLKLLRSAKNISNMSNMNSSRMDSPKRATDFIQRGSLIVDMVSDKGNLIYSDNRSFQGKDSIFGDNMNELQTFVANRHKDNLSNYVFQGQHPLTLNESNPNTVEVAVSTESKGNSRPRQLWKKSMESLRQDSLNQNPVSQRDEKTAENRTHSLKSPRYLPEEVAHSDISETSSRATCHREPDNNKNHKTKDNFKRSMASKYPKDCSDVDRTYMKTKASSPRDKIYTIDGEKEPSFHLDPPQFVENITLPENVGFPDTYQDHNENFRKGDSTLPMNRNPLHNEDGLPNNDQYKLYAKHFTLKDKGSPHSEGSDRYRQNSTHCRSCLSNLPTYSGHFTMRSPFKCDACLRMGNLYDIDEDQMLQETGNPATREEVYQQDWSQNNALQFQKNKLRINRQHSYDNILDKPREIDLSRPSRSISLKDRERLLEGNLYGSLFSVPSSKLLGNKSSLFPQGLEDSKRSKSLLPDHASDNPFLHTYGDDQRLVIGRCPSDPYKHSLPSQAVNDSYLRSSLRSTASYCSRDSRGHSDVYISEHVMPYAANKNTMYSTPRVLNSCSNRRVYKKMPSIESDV

co-IP signal with PMA, normalised to control (IP with anti-FIP3) (fold of control) [1] | co-IP signal with PMA, normalised to control (IP with anti-Rab11) (fold of control) [2] | co-IP signal with PMA, normalised to control (IP with anti-GluN1) (fold of control) [3] | co-IP signal with PMA, normalised to control (IP with anti-MyoVa) (fold of control) [4] | Substance
1.33 | 1.33 | – | – | myosin Va (from UniProt Q9QYF3 1-1828) (natural protein)
1.38 | – | 1.53 | 1.31 | small GTPase Rab11 (from UniProt P62494 1-216) (natural protein)

Continued, substance first:

Substance | co-IP signal with PMA, normalised to control (IP with anti-FIP3) (fold of control) [1] | co-IP signal with PMA, normalised to control (IP with anti-Rab11) (fold of control) [2] | co-IP signal with PMA, normalised to control (IP with anti-GluN1) (fold of control) [3] | co-IP signal with PMA, normalised to control (IP with anti-MyoVa) (fold of control) [4]
NMDA receptor subunit GluN1 (from UniProt P35439 19-938) | 1.44 | 1.5 | – | –
NMDA receptor subunit GluN2A (from UniProt Q00959 23-1464) | 1.45 | 1.39 | – | –
Rab11 family-interacting protein 3 (natural protein) | – | – | 1.37 | –
